Assay results reported in US20080014172A1.

Target: TNFα (R&D Systems cat# 210-TA) (UniProt P01375)
Test: cell-based or functional assay

UniProt P01375, sequence (P01375 77-233 limits assumed): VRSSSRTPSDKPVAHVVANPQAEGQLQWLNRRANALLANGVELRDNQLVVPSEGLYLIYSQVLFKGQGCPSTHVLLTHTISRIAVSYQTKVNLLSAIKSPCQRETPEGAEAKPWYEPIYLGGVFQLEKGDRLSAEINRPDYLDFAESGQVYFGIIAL

IC50 on TNFα-induced binding of Fibronectin-coated beads to BEND cells: 0.769 µg/mL
Substance: TNFα binding protein (TBP)
